The source of these data is paper PMC2841635.

In this assay the target is purified tagged Ack1 (HA-tagged Ack1 in methods and Fig. S1B; Myc-tagged Ack1 in the results) (UniProt Q07912). In words: co-IP; in vitro binding assay: 50 nM of purified Ack and AKT in mRLB (25 mM Tris pH 7.5, 175 mM NaCl, 1% Triton X-100, 10% glycerol), 30 mins at room temperature, then anti-Ack1 antibodies and Protein-A-sepharose overnight at 4°C; IB with anti-AKT antibody.
UniProt Q07912, sequence (Q07912 whole entry): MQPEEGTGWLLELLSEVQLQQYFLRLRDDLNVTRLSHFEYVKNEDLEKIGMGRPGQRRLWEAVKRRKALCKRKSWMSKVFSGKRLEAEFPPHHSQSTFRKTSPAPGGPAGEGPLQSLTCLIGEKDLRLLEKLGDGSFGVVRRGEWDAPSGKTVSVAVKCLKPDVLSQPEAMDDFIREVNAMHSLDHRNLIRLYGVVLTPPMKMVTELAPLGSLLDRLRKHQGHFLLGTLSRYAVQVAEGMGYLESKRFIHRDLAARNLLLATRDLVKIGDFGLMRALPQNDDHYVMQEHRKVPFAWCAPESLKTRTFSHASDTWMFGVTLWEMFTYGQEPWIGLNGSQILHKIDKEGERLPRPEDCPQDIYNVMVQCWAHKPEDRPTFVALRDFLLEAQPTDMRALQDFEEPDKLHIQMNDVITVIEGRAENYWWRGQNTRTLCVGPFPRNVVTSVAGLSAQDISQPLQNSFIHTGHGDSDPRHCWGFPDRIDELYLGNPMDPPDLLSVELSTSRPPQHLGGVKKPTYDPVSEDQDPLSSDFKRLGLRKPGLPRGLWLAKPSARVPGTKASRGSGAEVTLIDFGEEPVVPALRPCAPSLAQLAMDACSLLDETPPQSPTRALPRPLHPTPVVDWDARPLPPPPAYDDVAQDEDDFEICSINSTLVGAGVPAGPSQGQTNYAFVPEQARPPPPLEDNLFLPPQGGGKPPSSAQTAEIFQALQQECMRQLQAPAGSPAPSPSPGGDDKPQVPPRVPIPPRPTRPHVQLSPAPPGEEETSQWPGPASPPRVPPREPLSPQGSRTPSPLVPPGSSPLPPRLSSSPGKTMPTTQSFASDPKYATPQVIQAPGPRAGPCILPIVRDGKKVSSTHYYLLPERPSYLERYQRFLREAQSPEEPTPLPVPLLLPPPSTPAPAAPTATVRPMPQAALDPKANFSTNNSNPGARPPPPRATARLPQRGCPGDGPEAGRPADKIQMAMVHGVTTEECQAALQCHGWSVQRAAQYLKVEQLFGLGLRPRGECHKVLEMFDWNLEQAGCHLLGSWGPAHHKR

Substance “HA-tagged AKT expressed in HEK293T/HEK293 cells (from UniProt P31749 1-480) (enzyme)” registered a percent of total AKT in complex with Ack1 of 6.35%.
